Reference: the supplement of paper PMC10201428
± gives the standard deviation of the averaged measurements.

Assays:
[1] = tested on: VchCAST RNA-guided transposition machinery (E. coli BL21(DE3) host, lacZ target); experiment: relative integration efficiency (T-RL orientation) vs wild-type transposon end (log2 (normalized fold change)); transposon end mutated: right end (5 bp flank + 75 bp right end); higher = more efficient transposition
Summary of the method: (§1)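 Relative integration efficiency is a fold change of output over input barcode abundance, normalised to reference barcodes and log-transformed. Input plasmids and genomic integration junctions were PCR-amplified and Illumina-sequenced from E. coli BL21(DE3) co-transformed with a T7-driven effector plasmid and pUC57 donor pools of 1549 left-end or 1849 right-end transposon variants. Plating was done with 0.1 mM IPTG at 37°C for 18 h, with two biological output replicates and four reference barcodes.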

[2] = tested on: VchCAST RNA-guided transposition machinery (E. coli BL21(DE3) host, lacZ target); experiment: relative integration efficiency (T-LR orientation) vs wild-type transposon end (log2 (normalized fold change)); transposon end mutated: right end (5 bp flank + 75 bp right end); higher = more efficient transposition
Summary of the method: as §1

Row | Sequence | relative integration efficiency (log2) [1] | relative integration efficiency (log2) [2]
1 | ACATTTGTTGATACAACCAATTTATGATAATTACACCCATAAATTGATAATTATCACACCCATAAATTGATATTGCCTCTGATCATAGTCAGACCAACATTGCTACGACCCGTATTCGCACCGACAC | -0.308 ± 0.066 | -0.66 ± 0.3
2 | ACATTTGCTGATACTACCATTTAATGATAATAACACCCATAAAATGATAATTATCACACCCAATTTAACTATAACGCTCTGATCATAGTCAGACCAACATTGCTACGACCCGTATTCGCACCGACAC | -2.31 ± 0.44 | -0.487 ± 0.3
3 | ACATTTGTTGATACAACCATAAAATGATAATTACACCCATAAATTGATAATTATCACACCCATAAATTGATATTGCCTCTGATCATAGTCAGACCAACATTTGTGAGCGGATAACAAGCACCGACAC | -0.379 ± 0.087 | -0.684 ± 0.077
4 | ACATTTGTTGATACAACCATAAAATGATAATTACACCCATAAAAACTTAATTATCACACCCATAAATTGATATTGCCTCTGATCATAGTCAGACCAACATTGCTACGACCCGTATTCGCACCGACAC | -0.679 ± 0.12 | -0.52 ± 0.069
5 | ACATTTGTTGATACAACCATAAGTTGATATTTTCAACCATAAAGTGATATTTATCACACCCATAAATTGATATTGCCTCTGATCATAGTCAGACCAACATTGCTACGACCCGTATTCGCACCGACAC | -0.032 ± 0.064 | -0.507 ± 0.46
6 | ACATTTGTTGATACAACCATAAAATCATCATTACACCCATCAATTGATAATTATCCCACCCCATTTAACTATAACGCTCTGATCATAGTCAGACCAACATTGCTACGACCCGTATTCGCACCGACAC | -4.36 ± 0.26 | -1.08 ± 0.22
7 | ACATTTGTTGATACAACCATTAAATGATAATTACACCCATAAATTGATAATGATGACACCGAATTTAACTATAACGCTCTGATCATAGTCAGACCAACATTGCTACGACCCGTATTCGCACCGACAC | -1.3 ± 0.18 | 1.9 ± 0.16
8 | ACATTTGTTGATACAACCATATTTTGATAATTACACCCATATTATGATAATTATCACACCCATATTATGATATTGCCTCTGATCATAGTCAGACCAACATTGCTACGACCCGTATTCGCACCGACAC | -0.721 ± 0.17 | -0.241 ± 0.0091
9 | ACATTTGTTGATACAACCATAAAATGATAATTACCCCCATCAATTGATAATTATCCCACCCAATTTAACTATAACGCTCTGATCATAGTCAGACCAACATTGCTACGACCCGTATTCGCACCGACAC | -2.38 ± 0.22 | 0.511 ± 0.036
10 | ACATTTGTTGATACAACCATAAAATGATAATTACACCCATAAATTGATAATTATCACACCCATAAATTGATATTGCCGATGATCATAGTCAGACCAACATTGCTACGACCCGTATTCGCACCGACAC | 0.336 ± 0.0049 | 0.0792 ± 0.085
11 | ACATTTGTTCATACAACCCTAAAATGATAATTACACCCATAAATTCATAATTATCACACCCAATTTAACTATAACGCTCTGATCATAGTCAGACCAACATTGCTACGACCCGTATTCGCACCGACAC | -5.31 ± 0.95 | -2.644 ± 0.026
12 | ACATTTGTTGATACAACCATAAAGTGATATTTACAACCATAAAGTGATATTTATCACAACCATAAAATGATAATTACTCTGATCATAGTCAGACCAACATTGCTACGACCCGTATTCGCACCGACAC | 0.0579 ± 0.16 | 0.11 ± 0.34
13 | ACATTTGATGATAGAACCATTTAATGATAATAACACCCATAAAATGATAATTATCACACCCAATTTAACTATAACGCTCTGATCATAGTCAGACCAACATTGCTACGACCCGTATTCGCACCGACAC | -2.75 ± 0.52 | -0.836 ± 0.44
14 | ACATTTGTTGATACACCCATAAATTGATATTGCCACCCATAAATTGATAATTATCAGTGGGTATTTAACTATAACGCTCTGATCATAGTCAGACCAACATTGCTACGACCCGTATTCGCACCGACAC | -1.42 ± 0.14 | 2.03 ± 0.071
15 | ACATTTGTTGATACAACCATAAAATGATAATTAACAAACGCCCGGTCGCCGGCGACACAAACGCCCGGTCGCGGTAAGAGGATCATAGTCAGACCAACATTGCTACGACCCGTATTCGCACCGACAC | -2.3 ± 0.29 | 0.957 ± 0.25
16 | ACATTTGTTGATACAACCATAAGTTGATATTTTCAACCATAAGTTGATATTTTTCACAACCATATATTGATATCTCCTCTGATCATAGTCAGACCAACATTGCTACGACCCGTATTCGCACCGACAC | -0.102 ± 0.021 | -0.115 ± 0.22
17 | ACATTTGTTCATACAACCATAAAATGATAATTACCACCCCTACATTGATAATTATCACACCCATTTAACTATAACGCTCTGATCATAGTCAGACCAACATTGCTACGACCCGTATTCGCACCGACAC | -4.944 ± 0.019 | -3.25 ± 0.45
18 | ACATTTGTTGATACAACCATAAAAGGATCATTACACCCATAAATTGATAATTATCCCACCCCATTTAACTATAACGCTCTGATCATAGTCAGACCAACATTGCTACGACCCGTATTCGCACCGACAC | -2.12 ± 0.38 | 1.38 ± 0.021

Row | Sequence | relative integration efficiency (log2) [1] | relative integration efficiency (log2) [2]
19 | ACATTTGTTGATACAACCATAAAATGATAATTAATAATTATTTATAATCAGCAACTTAACACCCATAAATTGATAATTATCACACCCATAAATTGATATTGCCTCTGATCATAGTCAGACCAACATT | -3.62 ± 0.28 | -0.417 ± 0.9
20 | ACATTTGTGGATACAACCATAAAATGATAATTACACCCATAAATTCATTATTATCACACCCAATTTAACTATAACGCTCTGATCATAGTCAGACCAACATTGCTACGACCCGTATTCGCACCGACAC | -2.59 ± 0.53 | 0.908 ± 0.36
21 | ACATTTGTTGATACAACCATAAAATCTTAATTACACCCATAAATTGATAATTATCACACCCATAAATTGATATTGCCTCTGATCATAGTCAGACCAACATTGCTACGACCCGTATTCGCACCGACAC | -1.973 ± 0.011 | -1.09 ± 0.22
22 | ACATTTGTTGAGCACACCATAAAATGATAATTACACCCATAAATTGATAATTATCACACCCATAAATTGATATTGCCTCTGATCATAGTCAGACCAACATTGCTACGACCCGTATTCGCACCGACAC | -0.523 ± 0.031 | -1.83 ± 0.7
23 | ACATTTGTTTCGCCAACCATAAAATGATAATTACACCCATAAATTGATAATTATCACACCCATAAATTGATATTGCCTCTGATCATAGTCAGACCAACATTGCTACGACCCGTATTCGCACCGACAC | -1.72 ± 0.26 | -3.75 ± 0.98
24 | ACATTTGTAAAAAAAACCATACGTTGATTTTACGAAACCATACGCTGAAATAATCACAACCATAAATTGAAATTGCCTCTGATCATAGTCAGACCAACATTGCTACGACCCGTATTCGCACCGACAC | -6.99 ± 0.21 | -6.41 ± 1.9
25 | TGATTTGTTGATACAACCATAAAATGATAATTACACCCATAAATTGATAATTATCACACCCATAAATTGATATTGCCTCTGATCATAGTCAGACCAACATTGCTACGACCCGTATTCGCACCGACAC | 0.00782 ± 0.012 | 0.163 ± 0.18
26 | ACATTTGTTGATACAACCATAAAATGATAATTACACCCATAAATTGATAATTATCACACCCATAAATTGATATTGCCTCTGACTTAAACAAAATATATCTTGCCCGCCTTACAAATAGCACCGACAC | 0.417 ± 0.32 | 0.774 ± 0.22
27 | ACATTTGTTGATACAACCATAAAATGATAATTACCCCCATAAATTGATAATGATGACACCGAATTTAACTATAACGCTCTGATCATAGTCAGACCAACATTGCTACGACCCGTATTCGCACCGACAC | -1.63 ± 0.46 | 2.16 ± 0.067
28 | ACATTTGTTGATACAACCATAAAATGATAATTACAACCATATATTGATATCTCTCACACCCATAAATTGATAATTACTCTGATCATAGTCAGACCAACATTGCTACGACCCGTATTCGCACCGACAC | -0.651 ± 0.2 | -0.0249 ± 0.15
29 | ACATTTGTTGATACAACCATAAGTTGATATTTTCAACCATATATTGATATCTCTCACAACCATAAAGTGATATTTACTCTGATCATAGTCAGACCAACATTGCTACGACCCGTATTCGCACCGACAC | -0.324 ± 0.14 | -0.077 ± 0.032
30 | ACATTTGTTGATACAACCATAAAGTGATATTTACAACCATAAAGTGATATTTATCACAACCATAAGTTGATATTTTCTCTGATCATAGTCAGACCAACATTGCTACGACCCGTATTCGCACCGACAC | 0.0887 ± 0.14 | -0.279 ± 0.16
31 | ACATTTGTTGATACACCCATAAATTGATAATTACAACCATAAAATGATAATTATCACACCCATAAATTGATATTGCCTCTGATCATAGTCAGACCAACATTGCTACGACCCGTATTCGCACCGACAC | -0.475 ± 0.089 | -0.673 ± 0.45
32 | ACATTTGTTGATACAACCATAAAATGATAATTACACCCATTTATTGATAATTATCACACCCATAAATTGATATTGCCTCTGATCATAGTCAGACCAACATTGCTACGACCCGTATTCGCACCGACAC | -0.33 ± 0.029 | -0.628 ± 0.89
33 | ACATTTGTTGATACAACCATAAAATGATCATTACACCCATCAATTGATAATTATCACACCCCATTTAACTATAACGCTCTGATCATAGTCAGACCAACATTGCTACGACCCGTATTCGCACCGACAC | -2.76 ± 0.2 | 0.914 ± 0.34
34 | ACATTTGTTGATACAACCATAAAATCATCATTACACCCATAAATTGATAATTATCCCACCCAATTTAACTATAACGCTCTGATCATAGTCAGACCAACATTGCTACGACCCGTATTCGCACCGACAC | -3.07 ± 0.5 | 0.728 ± 0.058
35 | ACATTTGTCGATACAACCCTAAAATGATAATTACACCCATAAATTGATAATTATCACCCCCAATTTAACTATAACGCTCTGATCATAGTCAGACCAACATTGCTACGACCCGTATTCGCACCGACAC | -2.33 ± 0.4 | 0.88 ± 0.35
